Assay results from the supplement of paper PMC10567573.

B1: ZNF263 (parent)
chain: RTHTGEKPYKCTLCGENFSHRSNL

Variants of: B1
Test: protein stability index of a GFP-peptide fusion (GPS, HEK-293T) (PSI 1-6); higher = more stable
Conditions: c terminus: a fixed tail appended
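Also: lentivirally expressed fusions sorted by FACS into six bins by GFP to DsRed ratio, PSI derived from sequencing read proportions per bin multiplied by bin number.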

Protein stability index, by site and new letter:
Y9: R 2.14; S 2.38; P 2.04; A 2.15; H 2.61; M 1.69; F 1.96; L 1.79; E 2.4; I 1.52; V 2.33; T 2.33; C 3.37; W 1.72; Q 1.84; K 2.45; D 2.44; N 2.1; G 1.6
S19: Y 1.97; E 2.29; R 2.01; D 2.21; T 1.91; A 2.21; Q 2.09; L 1.81; W 1.74; H 1.48; C 2.06; P 1.77; M 1.96; V 2.51; G 1.96; I 2.81; K 1.66; F 2.12; N 2.08
T12: H 1.68; N 2.44; L 2.23; P 2.4; W 2.22; Q 2.04; G 1.74; A 2.07; R 2.37; Y 1.5; M 1.43; I 1.92; F 2.1; V 1.65; S 1.87; E 1.8; K 1.98; D 2.01; C 1.84
N17: H 2.15; Q 1.91; C 2.25; L 1.98; I 2.26; R 2.09; S 2.02; W 2.42; K 2.26; T 1.6; F 2.07; G 2.12; Y 1.91; A 1.99; D 1.7; V 1.92; M 1.76; E 2.4; P 1.81
H3: L 2.35; G 1.93; P 2; T 1.93; I 2.58; R 2.58; K 2.05; S 2.18; V 1.85; N 1.97; Y 1.93; Q 2.31; W 1.41; M 2.19
L13: R 1.56; G 2.42; H 2.06; W 1.88; E 3.3; M 1.76; T 2.57; Q 2.16; C 2.81; F 2.2; A 2.18; P 2.31; K 2.18; V 2.14; Y 2.04; D 3.21; S 2.64; N 3.03; I 2.44
T4: V 1.69; S 2.03; H 1.91; M 2.1; R 3.78; F 2.05; Q 2.01; Y 2.43; L 1.79; I 1.82; P 2.34; D 1.87; C 2.04; N 2.1; E 2.77; K 2.43; A 2.47; W 1.75; G 2.02
G15: P 2.57; H 2.23; Q 2.15; V 1.57; A 1.68; T 1.79; W 1.84; F 2.17; E 1.76; M 1.9; R 1.75; I 2.13; L 1.97; S 1.62; D 2.1; K 2.13; C 1.59; N 1.87; Y 1.82
P8: E 2.82; G 2.44; Q 2.09; D 2.44; S 1.78; F 1.38; R 1.99; I 1.63; A 2.1; N 1.96; H 2.06; K 2.06; L 1.98; W 1.46; V 1.91; C 2.51; T 1.9; Y 1.64; M 2.3
C14: Y 2.52; L 2.73; Q 3.45; R 3.17; V 3.3; E 4.05; F 2.66; D 2.96; I 2.98; N 3.19; W 2.39; H 2.84; G 3.13; T 3.37; S 3.01; A 3.07; M 3.43; P 2.83; K 3.48
G5: F 1.86; S 1.7; Y 1.63; A 1.59; I 2.06; Q 2.46; M 2.13; K 2.37; V 1.83; L 1.88; H 2.22; C 3.14; W 2.4; P 1.88; T 2.24; N 2.3; D 2.05; R 2.2; E 2.46
H20: F 1.67; N 1.95; D 1.84; Q 2.26; R 1.94; L 2.03; M 1.98; I 2.04; T 2.11; A 2.06; G 1.92; S 2.32; P 1.82; K 1.8; C 2.03; E 2.04
E16: D 1.93; G 1.68; H 1.87; Y 2.08; Q 2.46; W 1.77; C 1.98; K 1.59; I 1.83; F 2.3; S 1.99; R 2.03; L 1.5; A 1.8; M 1.86; P 1.94; V 2.17; T 2.51; N 1.77
F18: I 2.17; T 1.95; S 2.37; A 1.86; E 2.22; N 2.09; Q 2.1; R 2.15; W 2.07; D 2.27; K 1.74; H 2.76; Y 1.91; L 1.96; C 3.74; P 2.19; G 2.29; M 1.82; V 1.88
C11: L 2.9; E 3.97; G 3.59; F 2.06; P 3.02; I 2.56; Y 2.42; A 2.67; N 3.16; H 3.13; T 2.91; Q 3.24; D 3.87; M 2.78; R 2.81; S 3.36; W 2.04; K 2.92; V 2.51
K10: R 1.81; I 1.72; C 2.44; H 2.2; S 1.58; V 2.05; P 2.03; L 1.86; G 2.06; Q 2.36; M 1.97; T 1.78; A 1.75; W 2.38; F 1.76; D 2.68; N 1.91; E 2.04; Y 1.93
E6: G 1.88; W 1.58; P 2.68; A 2.15; C 2.44; R 2.34; Q 2.34; S 2.39; F 1.62; H 1.71; D 2.37; V 2.08; Y 2.64; T 2.26; L 2.18; M 2.37; K 1.9; N 1.67; I 1.69
K7: D 2.02; N 1.9; Q 1.71; I 1.99; Y 1.73; R 2.04; T 1.94; S 2.2; G 2.31; W 2.03; H 2.19; C 3.39; A 2.04; L 1.86; E 2.12; M 1.97; V 2.37; F 1.85; P 1.62
